Measurements published in patent US20180086841A1 (Merck Sharp & Dohme, published 2018).
Residue numbers refer to the chain shown, from its start.

T1: P8A
T1 construct: also called hCD27 P8A
T1 receptor chain: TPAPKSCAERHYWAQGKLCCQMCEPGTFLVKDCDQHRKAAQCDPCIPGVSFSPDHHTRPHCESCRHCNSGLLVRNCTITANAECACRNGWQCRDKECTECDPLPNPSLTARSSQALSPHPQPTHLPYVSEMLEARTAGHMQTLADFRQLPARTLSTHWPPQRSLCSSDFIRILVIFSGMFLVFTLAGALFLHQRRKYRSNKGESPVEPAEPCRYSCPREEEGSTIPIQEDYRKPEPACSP

T2: H60A
T2 construct: also called hCD27 H60A
T2 receptor chain: T1 receptor chain with A8P, H60A

T3: P44A
T3 construct: also called hCD27 P44A
T3 receptor chain: T1 receptor chain with A8P, P44A

T4: K17A
T4 construct: also called hCD27 K17A
T4 receptor chain: T1 receptor chain with A8P, K17A

T5: W13A
T5 construct: also called hCD27 W13A
T5 receptor chain: T1 receptor chain with A8P, W13A

T6: R93A
T6 construct: also called hCD27 R93A
T6 receptor chain: T1 receptor chain with A8P, R93A

T7: G89A
T7 construct: also called hCD27 G89A
T7 receptor chain: T1 receptor chain with A8P, G89A

T8: Q91A
T8 construct: also called hCD27 Q91A
T8 receptor chain: T1 receptor chain with A8P, Q91A

T9: E9A
T9 construct: also called hCD27 E9A
T9 receptor chain: T1 receptor chain with A8P, E9A

T10: F28A
T10 construct: also called hCD27 F28A
T10 receptor chain: T1 receptor chain with A8P, F28A

B1: hCD27.131A (mouse parental 131A) (antibody, mouse IgG1, V domains shown)
VH: QIQLVQSGPELKKPGETVKISCKASGYTFTNYGMNWVKQAPGKGLKWMGWINTNTGEPTYAEEFKGRFAFSLETSATTAYLQINNLKNEDTATYFCAREGDAMDYWGQGTSVTVSS
VL: QIVLTQSPAIMSASPGEKVTMTCSASSSVSYMHWYQQKSGTSPKRWIYDTSKLASGVPARFSGSGSGTSYSLTISSMEAEDAATYYCQQWNSYPFTFGSGTKLEIK
notes: Mouse IgG1 antibody; also called mouse hCD27.131A
B2: hCD27.15-6B (antibody, human IgG4 S228P, kappa, V domains shown)
VH: QVQLVQSGAEVKKPGASVKVSCKASGFIIKATYMHWVRQAPGQRLEWMGRIDPANGETKYDPKFQVRVTITADTSASTAYMELSSLRSEDTAVYYCARYAWYFDVWGQGTLVTVSS
VL: DIQMTQSPSSLSASVGDRVTITCRASENIYSFLAWYQQKPGKAPKLLIYHAKTLAEGVTSRFSGSGSGTDFTLTISSLQPEDSATYYCQHYYGSPLTFGQGTRLEIKR
notes: also called hCD27.15 (humanized 6B); humanized hCD27.15 (human IgG4, Clone 6B)

What was measured:
[1] = target: T1, P8A; test: flow cytometry on CHO-K1 transfectants, left sub-column, cell hatched (loss of binding)
Protocol: (§1) The ability of several anti-hCD27 antibodies to bind to a series of hCD27 alanine mutants was determined using CHO-K1 cells, transiently transfected pCI-neo empty vector, pCI-neo.hCD27 and several pCI-neo.CD27Ala mutant constructs.
(§2) Detached cells were transferred to 96 wells round-bottomed well plates at approximately 1.2×10⁵ cells/well. After spinning down the cells, discarding the supernatants and re-suspending the cells in the residual volume, the primary antibodies were added and incubated for 30 minutes at 4° C. Cells were washed three times with DPBS/BSA 1%, followed by centrifugation, discarding of the supernatants and re-suspension in the residual volume. […] After washing once, antibody binding was detected using the HTS plate reader (FACS Canto II) and FlowJo software for data analysis. Debris, dead cells and doublets were excluded from the analysis. Binding was expressed as the geometric mean of the FITC signal, relative to antibody binding to hCD27, which was set at 100%.

[2] = target: T2, H60A; test: flow cytometry on CHO-K1 transfectants;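 further: Anti-hCD27 antibodies tested on transiently transfected CHO-K1 cells bearing hCD27 alanine mutants, 30 min at 4 °C primary incubation, FITC readout excluding debris, dead cells and doublets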
Protocol: (§3) The hCD27 variants that were tested are listed. Amino acids correspond to the UniProt P26842-1 sequence. Amino acids 1-20 constitute the signal peptide. Binding is expressed as the geometric mean of the FITC signal, relative to antibody binding to hCD27, which was set at 100%.
as §1, §2

[3] = target: T3, P44A; test: flow cytometry on CHO-K1 transfectants;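 further: Anti-hCD27 antibodies tested on transiently transfected CHO-K1 cells bearing hCD27 alanine mutants, 30 min at 4 °C primary incubation, FITC readout excluding debris, dead cells and doublets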
Protocol: as §3, §1, §2

[4] = target: T4, K17A; test: flow cytometry on CHO-K1 transfectants;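 further: Anti-hCD27 antibodies tested on transiently transfected CHO-K1 cells bearing hCD27 alanine mutants, 30 min at 4 °C primary incubation, FITC readout excluding debris, dead cells and doublets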
Protocol: as §3, §1, §2

[5] = target: T5, W13A; test: flow cytometry on CHO-K1 transfectants;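 further: Anti-hCD27 antibodies tested on transiently transfected CHO-K1 cells bearing hCD27 alanine mutants, 30 min at 4 °C primary incubation, FITC readout excluding debris, dead cells and doublets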
Protocol: as §3, §1, §2

[6] = target: T6, R93A; test: flow cytometry on CHO-K1 transfectants
Protocol: as §3, §1, §2

[7] = target: T7, G89A; test: flow cytometry on CHO-K1 transfectants
Protocol: as §3, §1, §2

[8] = target: T8, Q91A; test: flow cytometry on CHO-K1 transfectants
Protocol: as §3, §1, §2

[9] = target: T9, E9A; test: flow cytometry on CHO-K1 transfectants
Protocol: as §3, §1, §2

[10] = target: T10, F28A; test: flow cytometry on CHO-K1 transfectants
Protocol: as §3, §1, §2

[11] = target: T11, human CD27 (A59T) (human, UniProt P26842 21-260); test: flow cytometry on transiently transfected CHO-K1 cells
T11 construct: also called hCD27 (A59T); human CD27 variant p.Ala59Thr

Binder	binding, WT hCD27 = 100 (GM FITC) [1]	binding, WT hCD27 = 100 (GM FITC) [2]	binding, WT hCD27 = 100 (GM FITC) [3]	binding, WT hCD27 = 100 (GM FITC) [4]	binding, WT hCD27 = 100 (GM FITC) [5]	binding, WT hCD27 = 100 (GM FITC) [6]	binding, WT hCD27 = 100 (GM FITC) [7]	binding, WT hCD27 = 100 (GM FITC) [8]	binding, WT hCD27 = 100 (GM FITC) [9]	binding, WT hCD27 = 100 (GM FITC) [10]	binding result [11]
B1	44.9%	–	–	–	–	–	–	–	–	–	–
B2	–	82.6%	68.7%	120%	71.4%	131%	97.4%	136%	58.5%	59.4%	no binding
